Values joined by “and” are separate entries in the source; they are usually repeats but may differ in a detail not shown here. Equal entries are not always repeated.
Target: the molecule itself
Test: cryo-EM structure

B1: CXCR4EM (human CXCR4 with N119S, hemagglutinin signal peptide, C-terminal monomeric enhanced GFP and FLAG tag) (receptor)
chain: EGISIYTSDNYTEEMGSGDYDSMKEPCFREENANFNKIFLPTIYSIIFLTGIVGNGLVILVMGYQKKLRSMTDKYRLHLSVADLLFVITLPFWAVDAVANWYFGNFLCKAVHVIYTVSLYSSVLILAFISLDRYLAIVHATNSQRPRKLLAEKVVYVGVWIPALLLTIPDFIFANVSEADDRYICDRFYPNDLWVVVFQFQHIMVGLILPGIVILSCYCIIISKLSHSKGHQKRKALKTTVILILAFFACWLPYYIGISIDSFILLEIIKQGCEFENTVHKWISITEALAFFHCCLNPILYAFLGAKFKTSAQHALTSVSRGSSLKILSKGKRGGHSSVSTESESSSFHSS
  stoichiometry N: 3 and 4
